We go through six substances from patent publication US8865867.

The first experiment has as its target HIV-1 consensus subtype C envelope (HIV-1). The experiment in a line: cell-based or functional assay.
Turning to BanLec H84A, the Fold Decrease in Anti-HIV activity (IC50 of mutant / IC50 of wild-type BanLec) turned out to be 2.5 fold and the IC50(nM), inhibition of infection of TZM-bl cells by pseudotyped HIV-1 was 0.7 nM.

BanLec H84M: the Fold Decrease in Anti-HIV activity (IC50 of mutant / IC50 of wild-type BanLec) is 21 fold and the IC50(nM), inhibition of infection of TZM-bl cells by pseudotyped HIV-1 is 7.7 nM.

The substance BanLec H84S registered a Fold Decrease in Anti-HIV activity (IC50 of mutant / IC50 of wild-type BanLec) of 4.1 fold and an IC50(nM), inhibition of infection of TZM-bl cells by pseudotyped HIV-1 of 1.6 nM.

On to BanLec H84T, for which the Fold Decrease in Anti-HIV activity (IC50 of mutant / IC50 of wild-type BanLec) came out at 23 fold and the IC50(nM), inhibition of infection of TZM-bl cells by pseudotyped HIV-1 was 7 nM.

Regarding BanLec H84Y, the IC50(nM), inhibition of infection of TZM-bl cells by pseudotyped HIV-1 was 0.29 nM.

In a further experiment the target is HIV-1 envelope (isolate used on monocyte-derived macrophages, not named) (HIV-1). The experiment in a line: cell-based or functional assay.
Regarding BanLec, the IC50 of inhibition of HIV-1 replication in MDM, 7 days was 9.72 nM.
